The source of these data is paper PMC6815173 (Proceedings of the National Academy of Sciences of the …, 2019).

Sequences and labels used below:
B1: complex of the β-catenin truncation mutant that lacks the N-terminal 107 residues with EcadCT (B_(N-107)E) (complex)
chain 1: QIPSTQFDAAHPTNVQRLAEPSQMLKHAVVNLINYQDDAELATRAIPELTKLLNDEDQVVVNKAAVMVHQLSKKEASRHAIMRSPQMVSAIVRTMQNTNDVETARCTAGTLHNLSHHREGLLAIFKSGGIPALVKMLGSPVDSVLFYAITTLHNLLLHQEGAKMAVRLAGGLQKMVALLNKTNVKFLAITTDCLQILAYGNQESKLIILASGGPQALVNIMRTYTYEKLLWTTSRVLKVLSVCSSNKPAIVEAGGMQALGLHLTDPSQRLVQNCLWTLRNLSDAATKQEGMEGLLGTLVQLLGSDDINVVTCAAGILSNLTCNNYKNKMMVCQVGGIEALVRTVLRAGDREDITEPAICALRHLTSRHQEAEMAQNAVRLHYGLPVVVKLLHPPSHWPLIKATVGLIRNLALCPANHAPLREQGAIPRLVQLLVRAHQDTQRRTSMGGTQQQFVEGVRMEEIVEGCTGALHILARDVHNRIVIRGLNTIPLFVQLLYSPIENIQRVAAGVLCELAQDKEAAEAIEAEGATAPLTELLHSRNEGVATYAAAVLFRMSEDKPQDYKKRLSVELTSSLFRTEPMAWNETADLGLDIGAQGEPLGYRQDDPSYRSFHSGGYGQDALGMDPMMEHEMGGHHPGADYPVDGLPDLGHAQDLMDGLPPGDSNQLAWFDTDL
chain 2: not shown
B2: full-length human β-catenin (natural protein)
chain: GMATQADLMELDMAMEPDRKAAVSHWQQQSYLDSGIHSGATTTAPSLSGKGNPEEEDVDTSQVLYEWEQGFSQSFTQEQVADIDGQYAMTRAQRVRAAMFPETLDEGMQIPSTQFDAAHPTNVQRLAEPSQMLKHAVVNLINYQDDAELATRAIPELTKLLNDEDQVVVNKAAVMVHQLSKKEASRHAIMRSPQMVSAIVRTMQNTNDVETARCTAGTLHNLSHHREGLLAIFKSGGIPALVKMLGSPVDSVLFYAITTLHNLLLHQEGAKMAVRLAGGLQKMVALLNKTNVKFLAITTDCLQILAYGNQESKLIILASGGPQALVNIMRTYTYEKLLWTTSRVLKVLSVCSSNKPAIVEAGGMQALGLHLTDPSQRLVQNCLWTLRNLSDAATKQEGMEGLLGTLVQLLGSDDINVVTCAAGILSNLTCNNYKNKMMVCQVGGIEALVRTVLRAGDREDITEPAICALRHLTSRHQEAEMAQNAVRLHYGLPVVVKLLHPPSHWPLIKATVGLIRNLALCPANHAPLREQGAIPRLVQLLVRAHQDTQRRTSMGGTQQQFVEGVRMEEIVEGCTGALHILARDVHNRIVIRGLNTIPLFVQLLYSPIENIQRVAAGVLCELAQDKEAAEAIEAEGATAPLTELLHSRNEGVATYAAAVLFRMSEDKPQDYKKRLSVELTSSLFRTEPMAWNETADLGLDIGAQGEPLGYRQDDPSYRSFHSGGYGQDALGMDPMMEHEMGGHHPGADYPVDGLPDLGHAQDLMDGLPPGDSNQLAWFDTDL
B3: entire cytoplasmic domain of human E-cadherin (EcadCT; residues 731 to 882) (domain or fragment)
chain: not shown
B4: full-length human αE-catenin (natural protein)
chain: GMTAVHAGNINFKWDPKSLEIRTLAVERLLEPLVTQVTTLVNTNSKGPSNKKRGRSKKAHVLAASVEQATENFLEKGDKIAKESQFLKEELVAAVEDVRKQGDLMKAAAGEFADDPCSSVKRGNMVRAARALLSAVTRLLILADMADVYKLLVQLKVVEDGILKLRNAGNEQDLGIQYKALKPEVDKLNIMAAKRQQELKDVGHRDQMAAARGILQKNVPILYTASQACLQHPDVAAYKANRDLIYKQLQQAVTGISNAAQATASDDASQHQGGGGGELAYALNNFDKQIIVDPLSFSEERFRPSLEERLESIISGAALMADSSCTRDDRRERIVAECNAVRQALQDLLSEYMGNAGRKERSDALNSAIDKMTKKTRDLRRQLRKAVMDHVSDSFLETNVPLLVLIEAAKNGNEKEVKEYAQVFREHANKLIEVANLACSISNNEEGVKLVRMSASQLEALCPQVINAALALAAKPQSKLAQENMDLFKEQWEKQVRVLTDAVDDITSIDDFLAVSENHILEDVNKCVIALQEKDVDGLDRTAGAIRGRAARVIHVVTSEMDNYEPGVYTEKVLEATKLLSNTVMPRFTEQVEAAVEALSSDPAQPMDENEFIDASRLVYDGIRDIRKAVLMIRTPEELDDSDFETEDFDVRSRTSVQTEDDQLIAGQSARAIMAQLPQEQKAKIAEQVASFQEEKSKLDAEVSKWDDSGNDIIVLAKQMCMIMMEMTDFTRGKGPLKNTSDVISAAKKIAEAGSRMDKLGRTIADHCPDSACKQDLLAYLQRIALYCHQLNICSKVKAEVQNLGGELVVSGVDSAMSLIQAAKNLMNAVVQTVKASYVASTKYQKSQGMASLNLPAVSWKMKAPEKKPLVKREKQDETQTKIKRASQKKHVNPVQALSEFKAMDSI

The target in test [1] is B4. Put plainly: SPR. (In general: In SPR one partner is held on a chip, and binding of the other changes the refractive index at the surface.)
Test [2] addresses B4. Put plainly: contrast variation small-angle neutron scattering.
The target in test [3] is B2. Put plainly: SPR.
Test [4] concerns the target β-catenin•epithelial cadherin cytoplasmic domain complex (BE) (human, UniProt P35222;P12830). Description: SPR.

Take B1: in test [1], the Kd – broadly, a measure of binding affinity in units of concentration – turned out to be 12600 ± 758 nM and the koff (commonly a measure of how fast the partners let go of each other) was 0.002 s⁻¹.

In the case of B2, the binding result in test [2] is listed as “binds”.

Molecule B3 showed a Kd in test [3] of 104 ± 3.2 nM.

B4: in test [4], the dissociation constant Kd is 119 ± 6.3 nM and the dissociation rate constant (koff) came to 0.0004 s⁻¹.
